Experimental data as given in the nanobody polyreactivity screen of Harvey et al. (2022).

Experiment: yeast display, Sf9 membrane polyspecificity reagent, FACS + sequencing; frameworks hold sequencing errors
Method in brief: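 After 36–48 hours of galactose induction, yeast (Saccharomyces cerevisiae BJ5465) displaying a synthetic nanobody library were stained at 4 °C for 1 hour with 10% biotinylated, detergent-solubilized Sf9 membrane reagent. Streptavidin microbeads enriched the stained cells before FACS sorting into low and high (top ~1%) gates on anti-HA and streptavidin fluorescence. Each clone's polyreactivity label reflects its gate of origin.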

Sequence	polyreactivity (PSR sort gate)
QVQLVESGGGLVQAGGSLRLSCAASGSIFYGYAMGWYRQAPGKERELVAAISWSGTSTYYADSVKGRFTISRDNAKNTVYLQMNSLKPEDTAVYYCAADQFQGNSGFEYWGQGTQVTVSS	low polyreactivity
QVQLVESGGGLVQAGGSLRLSCAASGSIFYGYAMGWYRQAPGKERELVAAITGGGSTNYADSVKGRFTISRDNAKNTVYLQMNSLKPEDTAVYYCAAAPVSLPDYGYWGQGTQVTVSS	low polyreactivity
QVQLVESGGGLVQAGGSLRLSCAASGSIFYGYAMGWYRQAPGKERELVAAITWSGGSTYYADSVKGRFTISRDNAKNTVYLQINSLKPEDTAVYYCNAVSTRFRVRTSDYWGQGTQVTVSS	high polyreactivity
QVQLVESGGGLVQAGGSLRLSCAASGSIFYGYAMGWYRQAPGKERELVATITSGDSTNYADSVKGRFTISRDNAKNTVYLQMNSLKPEDTAVYYCAADPAHYVFWYGRYGYDYWGQGTQVTVSS	low polyreactivity
QVQLVESGGGLVQAGGSLRLSCAASGSIFYHNAMGWYRQAPGKERELVAAITSGGSTHYADSVKGRFTISRDNAKNTVYLQMNSLKPEDTAVYYCNARDRRRTNLLDYWGQGTQVTVSS	low polyreactivity
QVQLVESGGGLVQAGGSLRLSCAASGSIFYHNAMGWYRQAPGKERELVATISWRSASTYYADSVKGRFRISRDNAKNTVYLQMNSLKPEDTAVYYCAAKLQYRQYYYRYGYDYWGQGTQVTVSS	high polyreactivity
QVQLVESGGGLVQAGGSLRLSCAASGSIFYHYAMGWYRQAPGKEREFVAAITRRGTSTYYADSVKGRFTISRDNAKNTVYLQMNSLKPEDTAVYYCAARYGPNMDYCGQGTQVTVSS	high polyreactivity
QVQLVESGGGLVQAGGSLRLSCAASGSIFYHYAMGWYRQAPGKEWELVAAITITGGSTYYADSVKGRFTISRDNAKNTVYLQMNSLKPEDTAVYYCAAEGWYGYQWFDYWGQGTQVTVSS	high polyreactivity
QVQLVESGGGLVQAGGSLRLSCAASGSIFYINAMGWYRQAPGKERELVASISGGGGSTYYADSVKGRFTISRDNAKNTVYLQMNSLKPEDTAVYYCAARYRVYYLAGYEYWGQGTQVTVSS	high polyreactivity
QVQLVESGGGLVQAGGSLRLSCAASGSIFYISAMGWYRQAPGKERELVAAISWIDDTTYYADSVKGRFTISRDNAKNTVYLQMNSLKPEDTAVYYCAAELENVYAGGQMDYWGQGTQVTVSS	high polyreactivity
QVQLVESGGGLVQAGGSLRLSCAASGSIFYIYAMGWYRQAPGKERELVASITFSGDITYYADSVKGRFTISRDNAKNTVYLQMNSLKPEDTAVYYCAADYHEQSYAVTYDYWGQGTQVTVSS	low polyreactivity
QVQLVESGGGLVQAGGSLRLSCAASGSIFYLNAMGWYRQAPGKERELVAAISKRGSRTYYADSVKGRFTISRDNAKNTVYLQMNSLKPEDTAVYYCNALDTPGYNTEPARQYDHWGQGTQVTVSS	high polyreactivity
QVQLVESGGGLVQAGGSLRLSCAASGSIFYLYAMGWYRQAPGKERELVADINWNGGTYYADSVKGRFTISRDNAKNTVYLQMNSLKPEDTAVYYCAAYYYPYEYDYWGQGTQVTVSS	high polyreactivity
QVQLVESGGGLVQAGGSLRLSCAASGSIFYLYAMGWYRQAPGKERELVAGITTSGGTTYYADSVKGRFTISRDNAKNTVYLQMNSLKPEDTAVYYCNAAVGYYSLPYDYWGQGTQVTVSS	low polyreactivity
QVQLVESGGGLVQAGGSLRLSCAASGSIFYLYAMGWYRQAPGKERELVATITASGGSTNYADSVKGRFTISRDNAKNTVYLQMNSLKPEDTAVYYCAAEYYYLVYEYDYWGQGTQVTVSS	high polyreactivity
QVQLVESGGGLVQAGGSLRLSCAASGSIFYNALGWYRQAPGKERELVASISWSGGTSTYYADSVKGLFTISRDNAKNTVYLQMNSMKPEDTAVYYCAKASRYSSYWMYYWGQGTQVTVSS	high polyreactivity
QVQLVESGGGLVQAGGSLRLSCAASGSIFYNAMGGYRQAPGKERELVAGISSGTSTYYADSVKGRFTISRDNAKNTVYLLMNSLKPEDTEVYYCATRWSYRYGYWGQGTQVTVSS	high polyreactivity
QVQLVESGGGLVQAGGSLRLSCAASGSIFYNYGMGWYRQAAGKEGELVAAIRASGDSTYYADSVKGRFTISRDNAKNTLYLQINSQKPEDTAVYYCAARPNQSYNGLYYYWGQGTQVTVSS	low polyreactivity
QVQLVESGGGLVQAGGSLRLSCAASGSIFYNYTMGWSRQAPGKERELVAAISSSGGSTYYADSVKGRFSISRDNAKITVYLQMNSLTPEDTAVYFCAARSPGYYRIVWYDYWGLGTQVTVSS	high polyreactivity
QVQLVESGGGLVQAGGSLRLSCAASGSIFYPYAMGWYRKAPGKERELVAAIRRSGVDTYYADSVKGRFTISRDYAKNTYNLQMISLKPEDTAVYYCAADPYWFFAHYDSWGQGTQVTVSS	low polyreactivity
QVQLVESGGGLVQAGGSLRLSCAASGSIFYPYAMGWYRPAPGTERELVASISWSGGSTRYADSVKGRFTISRDNAKNSVYLQMNSLKPEDTAVYYCNAGYRTRHISLYDYWGQGTQVTVSS	high polyreactivity
QVQLVESGGGLVQAGGSLRLSCAASGSIFYPYAMGWYRQAPGKERELVAAISSGGRTYYADSVKGRFTISRDNAKNTVYLQMNSLKPEDTAVFYCAARPKAYGRPPGYYWGQGTQVTVSS	high polyreactivity

Sequence	polyreactivity (PSR sort gate)
QVQLVESGGGLVQAGGSLRLSCAASGSIFYPYAMGWYRQAPGKERELVAAISSSGGSTYYADSVKGRFTISRDNAKNTVYLQMNSLKPEDTAVYYCAADAATGIFDRLNYWGQGTQVTVSS	high polyreactivity
QVQLVESGGGLVQAGGSLRLSCAASGSIFYPYAMGWYRQAPGKERELVAAITWSGGETYYADSVKGRFTISRDNAKNTVYLQMNSLKPEDTAVYYCAAEWNVSPYDYWGQGTQVTVSS	low polyreactivity
QVQLVESGGGLVQAGGSLRLSCAASGSIFYPYAMGWYRQAPGKERELVASITINDGSTYYADSVKGRFTISRDNAKNTVYLQMNSLKTEDTSVYYCNVEPVPGFGSEYEYWGQGTQVTVSS	low polyreactivity
QVQLVESGGGLVQAGGSLRLSCAASGSIFYPYTMGWYRQAPGKERELVAAISGGCRTYYADSVKGRFTISRDNAKNTVYLQMNSLKPEDTAVYYCAARYGYRWLVGKYEYWGQGTQVTVSS	high polyreactivity
QVQLVESGGGLVQAGGSLRLSCAASGSIFYQNAMGWYRHAPGKERELVAAITSDGSTYYADSVKGRFTISRDNAKKTVYLQMNSLKPEDTAVYYCAAEDYGHRYDYWGQGTQVTVSS	low polyreactivity
QVQLVESGGGLVQAGGSLRLSCAASGSIFYQNAMGWYRQAPGKERELVAAITSDGSTYYADSVKGRFTISRDNAKNTVYLQMNSLKPEDNAVYYCAAEYYVHRYDYWGQGTQVTVSS	low polyreactivity
QVQLVESGGGLVQAGGSLRLSCAASGSIFYRNALGWYRQAPGKERELVAAISSDGSTNYADSVKGRFTISRDNAKNTVYLQMNSLKPEDTAVYYCAAPWTQILDYWGQGTQVTVSS	low polyreactivity
QVQLVESGGGLVQAGGSLRLSCAASGSIFYRNAMGWSRQAPGKERELVAAISASGGSTYYADSVKGRFTISRDNAKNTVYLQMNSLKPEDTAVYYCAVEYRKSRSYAPMGYWGQGTQVTVSS	high polyreactivity
QVQLVESGGGLVQAGGSLRLSCAASGSIFYRNAMGWYRQAPGKERELVAAISSDGSTNYADSVKGRFTISRDNAKNTVYLQMNSLKPEDTAVYDCAGLQKRRSYWRPFYWGQGTQVTVSS	low polyreactivity
QVQLVESGGGLVQAGGSLRLSCAASGSIFYRNAMGWYRQAPGKERELVAAISSDGSTNYADSVKGRFTISRDNAKNTVYLQMNSLKPEDTAVYYCAAPWTHILDYWGQGTQVTVSS	low polyreactivity
QVQLVESGGGLVQAGGSLRLSCAASGSIFYRNAMGWYRQAPGKERELVAAISSDGSTNYADSVTGRFTISRDNAKNTVYLQMNSLKPEDTAVYYCAAPWTQILDYWGQGTQVTVSS	low polyreactivity
QVQLVESGGGLVQAGGSLRLSCAASGSIFYRNAMGWYRQAPGKERELVAAISSRGTRTYYADSVKGRFTISRDNAKNTVYLQMNSLKPEDTAVYYCAAADYRFYNGPYSRRWLYGYWGQGTQVTVSS	high polyreactivity
QVQLVESGGGLVQAGGSLRLSCAASGSIFYRNAMGWYRQAPGKERELVAAISSSVSSTYYADSVKGRFTISRDNAKNTVYLQMNSLKPEDTAVYYCAARRVQRGGDYVYRYLYDYWGQGTQVTVSS	low polyreactivity
QVQLVESGGGLVQAGGSLRLSCAASGSIFYRNAMGWYRQAPGKERELVAAITRSDGRTYYADSVKGRFTISRDNAKNTVYLLMNSLKPEDTAVYYCAADYSFGYRDFYYWGQGTQVTVSS	low polyreactivity
QVQLVESGGGLVQAGGSLRLSCAASGSIFYRNAMGWYRQTPGKERELVAAISSDGSTNYADSVKGRFTFSLDNAKNTVYLQMNRLNPEYTAVYYCAAPWTQFLDYWGQGTQVTVSS	low polyreactivity
QVQLVESGGGLVQAGGSLRLSCAASGSIFYRNTMGWYRQAPGKERELVASINTGTGTYYADSVKGRFTISRDNAKNTVYLQMNSLKPEDTAVYYCNAKGWVWPFPSYYPYDSWGQGTQVTVSS	high polyreactivity
QVQLVESGGGLVQAGGSLRLSCAASGSIFYRNVMGWYRQAPGKERELVAAISQRGGSTYYADSVKGRFTISRDNAKNTVYLQMNSLKPEDTAVYYCNAASRGAGTSIWSWYDHWGQGTQVTVSS	low polyreactivity
QVQLVESGGGLVQAGGSLRLSCAASGSIFYRNVMGWYRQAPGKERELVAAISRSGGSTYYADSVKGRFTISRDNAKNTVYLQMNSLQPEDTAVYYCAGRYSPFYYWGQGTQVTVSS	high polyreactivity
QVQLVESGGGLVQAGGSLRLSCAASGSIFYRYALGWYRQAPGKEREFVAGITTRGGSTYYADSVKGRFTISRDNAKNTVYFQMNCLKPEDTAVYDCAASSRVWPNFGYWGQGTQVTVSS	high polyreactivity
QVQLVESGGGLVQAGGSLRLSCAASGSIFYRYAMAWYRQAPGKERELVAAISSTGSPYYADSVKGRFTISRDNAKNTVYLQRNSLKPEDTAVYYCAARQGYRSYRRYDDWGQGTQVTVSS	high polyreactivity
QVQLVESGGGLVQAGGSLRLSCAASGSIFYRYAMGWNRPAPGKERELVAAISRSGGTTYYADSVKGRFTISRDNAKNTVYLQMYCLKPEDTAVYYCAALVFHAYSTDPYFYWGQGTQVTVSS	high polyreactivity
